Data published in patent US20220348648A1 (published 2022).
Where two headings read alike, the source gives them in different places.

T1: Recombinant Human DLL3 Protein (amino acids Ala27-Ala479, Cat #9749-DL, R&D Systems) (UniProt Q9NYJ7 27-479)
T1 chain: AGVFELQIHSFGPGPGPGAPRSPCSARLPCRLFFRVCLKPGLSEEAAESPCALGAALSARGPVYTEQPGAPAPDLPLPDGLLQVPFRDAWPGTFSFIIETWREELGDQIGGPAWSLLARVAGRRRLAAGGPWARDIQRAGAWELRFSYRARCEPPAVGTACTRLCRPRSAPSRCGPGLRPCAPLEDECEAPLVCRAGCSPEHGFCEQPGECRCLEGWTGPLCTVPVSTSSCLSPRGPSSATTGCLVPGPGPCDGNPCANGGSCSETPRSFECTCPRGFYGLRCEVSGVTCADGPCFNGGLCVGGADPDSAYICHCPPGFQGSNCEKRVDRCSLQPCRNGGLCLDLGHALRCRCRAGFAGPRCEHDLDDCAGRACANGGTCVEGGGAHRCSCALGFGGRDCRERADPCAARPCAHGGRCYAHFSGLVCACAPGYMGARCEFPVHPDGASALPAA

B1: 10-O18-A (antibody, V domains shown)
VH: QVQLQESGPGLVKPSETLSLTCTVSGGSINSYYWSWIRQPPGKGLEWIGYIFYSGITNYNPSLKSRVTISLDTSKNQFSLKLSSVTAADTAVYYCARIGVAGFYFDYWGQGTLVTVSS
VL: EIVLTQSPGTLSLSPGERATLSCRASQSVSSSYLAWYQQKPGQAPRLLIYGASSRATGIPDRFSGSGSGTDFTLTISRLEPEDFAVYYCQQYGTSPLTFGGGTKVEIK
B2: 6-G23-F (antibody, V domains shown)
VH: QVQLVQSGAEVKKPGASVKVSCKASGYTFTSYYIHWVRQAPGQGLEWMGIIDPSDGSTNYAQKFQGRVTMTRDTSTSTVYMELSSLRSEDTAVYYCARDREYNYYGLDVWGQGTTVTVSS
VL: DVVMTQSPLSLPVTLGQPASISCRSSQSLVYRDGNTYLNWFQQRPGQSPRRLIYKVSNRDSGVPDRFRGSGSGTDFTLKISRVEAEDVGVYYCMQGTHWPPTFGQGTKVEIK
B3: 7-I1-B (antibody, V domains shown)
VH: EVQLVESGGGLVKPGGSLRLSCAASGFTFSNTWMSWVRQAPGKGLEWVGRIKSKSDGGTTDYAAPVKGRFTISRDDSKNTLYLQMNSLKTEDTAVYYCTQYYWNSFDYWGQGTLVTVSS
VL: not shown
B4: 2-C8-A (antibody, V domains shown)
VH: EVQLVESGGGLVQPGGSQRLSCAASGFTFSSYWMNWVRQAPGKGLEWVANIKEDGSEKYYVDSVKGRFTISRDNAKNSLYLQMNSLRAEDTAVYYCARDPGWAPFDYWGQGTLVTVSS
VL: DIQMSQSPSSLSASVGDRVTITCRASQGISNYLAWFQQKPGKAPKSLIYAASSLQSGVPSKFSGSGSGTDFTLAISSLQPEDFATYYCQQYNSFPYTFGQGTTLEIK

How the values were obtained:
Test in all cases: BLI (Octet HTX)
[1] = target: T1, Recombinant Human DLL3 Protein (amino …)
[2] = target: T1, Recombinant Human DLL3 Protein (amino …)
[3] = target: T1, Recombinant Human DLL3 Protein (amino …)

Row | Binder | Kd [1] | Kd [2] | Kd [3]
1 | B1 | 0.602 nM | 0.62 nM | 
2 | B2 |  | 0.16 nM | 0.16 nM
3 | B3 |  | 0.68 nM | 0.686 nM
4 | B4 | 0.668 nM | 0.668 nM | 
